One molecule from US20210147536A1 (MAB VENTURE BIOPHARM, published 2021) can be followed below.

Where only a bound is given, the exact number is not on record here.

Experiment [1] addresses T1, human LAG-3-6*His tag recombinant fusion protein (human, UniProt P18627 23-450, biotin-labelled in panning and in Example 9).
T1 construct: Bought protein; also called hLAG-3-6*his tag recombinant protein; human LAG-3-his tag recombinant fusion protein
T1 sequence: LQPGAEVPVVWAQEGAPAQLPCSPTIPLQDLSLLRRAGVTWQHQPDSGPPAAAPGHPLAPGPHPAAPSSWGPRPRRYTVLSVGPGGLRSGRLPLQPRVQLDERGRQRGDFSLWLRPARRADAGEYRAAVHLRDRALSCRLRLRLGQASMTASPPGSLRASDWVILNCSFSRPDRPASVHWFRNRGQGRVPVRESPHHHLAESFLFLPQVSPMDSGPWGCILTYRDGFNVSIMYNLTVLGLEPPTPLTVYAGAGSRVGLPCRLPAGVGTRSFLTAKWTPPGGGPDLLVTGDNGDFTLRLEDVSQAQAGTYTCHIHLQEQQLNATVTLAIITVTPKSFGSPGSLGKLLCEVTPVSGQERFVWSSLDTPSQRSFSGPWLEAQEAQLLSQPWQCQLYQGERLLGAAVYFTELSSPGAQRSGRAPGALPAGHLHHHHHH
The experiment is described as follows: BLI Octet Red96, MV705-3 on AHC sensor, human LAG-3-6*His at 500 nM, 1:1 model. In general terms: Biolayer interferometry detects binding as a change in optical thickness at a sensor tip.

Experiment [2] has as its target T1, human LAG-3-6*His tag recombinant …. The experiment is described as follows: ELISA as in Example 4 (antibody coated, human LAG-3-6*His titrated); N = 5.
Experiment [3] deals with T2, human LAG-3 on the cell surface (human, UniProt P18627 23-525).
T2 sequence (looked up): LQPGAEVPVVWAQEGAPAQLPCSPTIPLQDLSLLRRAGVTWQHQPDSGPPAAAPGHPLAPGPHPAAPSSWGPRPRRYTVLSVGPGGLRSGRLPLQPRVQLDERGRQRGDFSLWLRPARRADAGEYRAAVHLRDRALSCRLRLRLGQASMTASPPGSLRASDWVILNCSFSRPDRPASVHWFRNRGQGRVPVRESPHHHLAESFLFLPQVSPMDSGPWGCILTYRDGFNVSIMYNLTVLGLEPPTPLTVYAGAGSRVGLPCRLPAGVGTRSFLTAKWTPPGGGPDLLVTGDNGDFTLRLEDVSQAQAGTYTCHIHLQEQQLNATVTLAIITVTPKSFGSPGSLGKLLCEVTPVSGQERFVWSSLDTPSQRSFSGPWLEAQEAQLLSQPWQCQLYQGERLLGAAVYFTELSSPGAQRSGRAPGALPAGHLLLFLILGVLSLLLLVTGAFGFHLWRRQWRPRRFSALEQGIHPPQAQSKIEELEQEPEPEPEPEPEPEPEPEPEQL
Kind of experiment: cell-based or functional assay.

Experiment [4] addresses T2, human LAG-3 on the cell surface. The experiment is described as follows: flow cytometry on activated human CD4+ T cells expressing LAG-3, PE anti-human antibody. In general terms: A flow cytometer gives signals particle by particle.
The target of experiment [5] is T1, human LAG-3-6*His tag recombinant …. The experiment is described as follows: BLI Octet Red96, MV705-3 on AHC sensor, human LAG-3-6*His at 250 nM, 1:1 model.
The target is the same in experiment [6]. Kind of experiment: BLI (Octet Red96), biotinylated hLAG-3-6*his on SA biosensor, antibody 100 µg/mL in solution, 1:2 binding model.
Experiment [7] deals with T3, recombinant mouse LAG-3-6*His tag fusion protein (mouse, UniProt Q61790 23-442).
T3 construct: made in Expi293 cells from the mouse LAG-3 cDNA; also called mouse LAG-3 antigen
T3 sequence: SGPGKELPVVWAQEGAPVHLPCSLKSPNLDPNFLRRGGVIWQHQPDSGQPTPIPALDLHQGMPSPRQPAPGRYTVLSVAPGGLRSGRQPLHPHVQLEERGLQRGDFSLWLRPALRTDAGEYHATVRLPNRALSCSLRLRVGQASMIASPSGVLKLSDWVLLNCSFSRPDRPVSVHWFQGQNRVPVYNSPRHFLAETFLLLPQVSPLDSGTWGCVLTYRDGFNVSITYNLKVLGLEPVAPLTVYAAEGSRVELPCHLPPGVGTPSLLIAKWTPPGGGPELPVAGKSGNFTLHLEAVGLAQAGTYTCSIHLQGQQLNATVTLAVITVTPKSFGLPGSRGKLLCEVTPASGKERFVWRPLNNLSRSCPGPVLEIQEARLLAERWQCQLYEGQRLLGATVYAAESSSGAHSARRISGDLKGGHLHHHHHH
Kind of experiment: ELISA, antibody coated at 1 µg/ml, mouse LAG-3-6*His titrated, anti-His HRP. (An ELISA detects its analyte on a solid surface through an enzyme-linked reagent.)

Experiment [8] has as its target T1, human LAG-3-6*His tag recombinant …. The experiment is described as follows: ELISA, human LAG-3-6*His coated at 1 µg/ml, IgG4 titrated, anti-hIgG HRP.

B1: anti-human LAG-3 full human monoclonal antibody MV705-3 (antibody, human IgG4, V domains shown)
VH: EVQLLESGAEVKKPGASVKVSCKASGYTFTSYGISWVRQAPGQGLEWMGWISAYNGNTNYAQKLQGRVTMTTDTSTSTAYMELRSLRSDDTAVYYCARDGWWELLRPDDAFDIWGQGTTVTVSS
VL: QLVLTQSPSVSVSPGQTASITCSGDKLGDKYAYWYQQKPGQAPVLVIYYDSDRPSGIPERFSGSNSGNTATLTISRVEAGDEADYYCQVWDSSSDQVVFGGGTQLTVLG
notes: Full IgG4 with lambda light chain; also called MV705-3(DD + DD)
Broadly, the Kd is a measure of binding affinity in units of concentration. By koff is commonly meant a measure of how fast the partners let go of each other. A word on the kon: it is the second-order rate constant of association. In general, EC50 refers to the midpoint of the concentration-response curve. For the molecule B1, the Kd turned out to be 2.5 nM in experiment [1] and 3.04 nM in experiment [6]. For the same molecule, the koff in experiment [1] is 9.95e-05 s⁻¹; in experiment [5], < 1e-07 s⁻¹; in experiment [6] it was 0.000373 s⁻¹. Besides, the kon amounted to 39900 M⁻¹ s⁻¹ in experiment [1], 13800 M⁻¹ s⁻¹ in experiment [5] and 122000 M⁻¹ s⁻¹ in experiment [6]. The EC50 turned out to be 0.039 µg/mL in experiment [2], 0.0019 µg/mL in experiment [4], 2.6 µg/mL in experiment [7] and 0.364 µg/mL in experiment [8]. In experiment [3], the “EC50, ability to activate T cells in vitro (LAG3/NFAT Reporter-Jurkat)” value was determined as 0.13 µg/mL.
